Experiments:
Test in all cases: holdup assay
Set-up in all cases: key: below the threshold = too weak to quantify, mostly under pKd 3.1 to 4
AHNAK1, Q09666 = target: AHNAK1, Q09666
APBA2_1, Q99767 = target: T1, APBA2_1, Q99767
T1 sequence (Q99767 563-664, limits assumed, looked up): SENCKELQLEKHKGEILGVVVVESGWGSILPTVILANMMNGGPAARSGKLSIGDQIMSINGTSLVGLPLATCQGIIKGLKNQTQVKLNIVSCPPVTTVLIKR

DFNB31_3, Q9P202 = target: T2, DFNB31_3, Q9P202
T2 sequence (Q9P202 811-907, limits assumed, looked up): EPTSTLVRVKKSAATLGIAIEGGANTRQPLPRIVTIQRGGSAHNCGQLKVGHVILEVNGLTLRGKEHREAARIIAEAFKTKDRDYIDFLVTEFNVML

DLG1_2, Q12959 = target: DLG1_2, Q12959
DLG1_3, Q12959 = target: DLG1_3, Q12959
DLG3_1, Q92796 = target: T3, DLG3_1, Q92796
T3 sequence (Q92796 125-227, limits assumed, looked up): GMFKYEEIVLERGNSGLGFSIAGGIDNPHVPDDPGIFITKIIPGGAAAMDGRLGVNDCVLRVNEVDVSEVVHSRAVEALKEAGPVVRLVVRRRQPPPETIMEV

GORASP1, Q9BQQ3 = target: GORASP1, Q9BQQ3
HTRA3, P83110 = target: T4, HTRA3, P83110
T4 sequence (P83110 354-453, limits assumed, looked up): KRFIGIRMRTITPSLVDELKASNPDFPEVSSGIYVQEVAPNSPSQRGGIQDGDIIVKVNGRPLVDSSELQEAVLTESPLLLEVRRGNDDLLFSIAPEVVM

Inadl_2, Q8NI35 = target: Inadl_2, Q8NI35
Inadl_9, Q8NI35 = target: Inadl_9, Q8NI35
LDB3, O75112 = target: LDB3, O75112
LNX1_2, Q8TBB1 = target: LNX1_2, Q8TBB1
LNX2_2, Q8N448 = target: T5, LNX2_2, Q8N448
T5 sequence (Q8N448 334-432, limits assumed, looked up): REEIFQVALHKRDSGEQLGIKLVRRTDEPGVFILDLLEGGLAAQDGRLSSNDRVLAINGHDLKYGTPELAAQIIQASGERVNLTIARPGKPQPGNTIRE

MAGI1_2, Q96QZ7 = target: MAGI1_2, Q96QZ7
MPDZ_10, O75970 = target: T6, MPDZ_10, O75970
T6 sequence (O75970 1624-1722, limits assumed, looked up): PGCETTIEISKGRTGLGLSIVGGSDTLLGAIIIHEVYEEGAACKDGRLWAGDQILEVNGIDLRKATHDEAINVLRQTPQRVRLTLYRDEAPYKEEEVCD

MPP6, Q9NZW5 = target: T7, MPP6, Q9NZW5
T7 sequence (Q9NZW5 125-219, limits assumed, looked up): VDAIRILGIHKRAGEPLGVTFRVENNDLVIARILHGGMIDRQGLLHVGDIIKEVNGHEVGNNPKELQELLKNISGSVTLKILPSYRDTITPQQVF

NHERF3_1, Q5T2W1 = target: T8, NHERF3_1, Q5T2W1
T8 sequence (Q5T2W1 4-100, limits assumed, looked up): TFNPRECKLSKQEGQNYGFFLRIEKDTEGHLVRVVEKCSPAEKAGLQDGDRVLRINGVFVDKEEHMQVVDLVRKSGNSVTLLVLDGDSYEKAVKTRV

NHERF3_3, Q5T2W1 = target: T9, NHERF3_3, Q5T2W1
T9 sequence (Q5T2W1 238-333, limits assumed, looked up): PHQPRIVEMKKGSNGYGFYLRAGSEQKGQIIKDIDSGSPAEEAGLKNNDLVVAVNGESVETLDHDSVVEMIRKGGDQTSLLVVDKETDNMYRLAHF

NHERF4_1, Q86UT5-2 = target: NHERF4_1, Q86UT5-2
NOS1, P29475 = target: NOS1, P29475
PDLIM1, O00151 = target: PDLIM1, O00151
PICK1, Q9NRD5 = target: PICK1, Q9NRD5
RAPGEF6, Q8TEU7 = target: T10, RAPGEF6, Q8TEU7
T10 sequence (Q8TEU7 525-625, limits assumed, looked up): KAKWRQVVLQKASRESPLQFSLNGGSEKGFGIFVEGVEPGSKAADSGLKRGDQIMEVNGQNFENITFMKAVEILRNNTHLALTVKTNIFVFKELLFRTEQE

SCRIB_3, Q14160 = target: SCRIB_3, Q14160
SNTA1, Q13424 = target: T11, SNTA1, Q13424
T11 sequence (Q13424 82-180, limits assumed, looked up): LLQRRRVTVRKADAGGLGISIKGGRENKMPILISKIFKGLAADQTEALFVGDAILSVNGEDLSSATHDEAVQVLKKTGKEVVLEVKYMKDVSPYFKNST

TJP3_3, O95049 = target: T12, TJP3_3, O95049
T12 sequence (O95049 375-456, limits assumed, looked up): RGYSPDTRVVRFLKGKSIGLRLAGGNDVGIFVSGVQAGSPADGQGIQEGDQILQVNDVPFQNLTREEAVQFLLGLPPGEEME

[1] = plain residues with an end cap or a label only (N-terminal biotin on a linker: ado-ado)
[2] = plain residues with an end cap or a label only (N-terminal biotin on a linker: (peg)3)
[3] = plain residues with an end cap or a label only (N-terminal biotin on a linker: ahx)

Chain of LNX1_2, Q8TBB1 (Q8TBB1 371-470): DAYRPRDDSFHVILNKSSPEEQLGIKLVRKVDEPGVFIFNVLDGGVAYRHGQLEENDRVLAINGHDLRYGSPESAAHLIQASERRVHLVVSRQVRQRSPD
Chain of Inadl_2, Q8NI35 (Q8NI35 238-335): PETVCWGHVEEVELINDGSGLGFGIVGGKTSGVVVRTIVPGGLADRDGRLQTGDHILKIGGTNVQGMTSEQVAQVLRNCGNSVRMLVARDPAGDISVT
Chain of MAGI1_2, Q96QZ7 (Q96QZ7 456-580): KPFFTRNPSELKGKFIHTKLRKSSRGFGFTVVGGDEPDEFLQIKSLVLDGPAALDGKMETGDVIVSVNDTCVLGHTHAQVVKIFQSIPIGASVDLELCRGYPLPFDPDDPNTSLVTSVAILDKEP
Chain of PICK1, Q9NRD5 (Q9NRD5 17-115): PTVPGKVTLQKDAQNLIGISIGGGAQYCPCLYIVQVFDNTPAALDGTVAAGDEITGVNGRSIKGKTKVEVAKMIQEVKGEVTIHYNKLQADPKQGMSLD
Chain of PDLIM1, O00151 (O00151 1-87): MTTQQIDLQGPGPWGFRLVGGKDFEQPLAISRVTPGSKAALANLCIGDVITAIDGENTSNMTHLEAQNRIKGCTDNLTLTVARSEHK
Chain of LDB3, O75112 (O75112 1-94): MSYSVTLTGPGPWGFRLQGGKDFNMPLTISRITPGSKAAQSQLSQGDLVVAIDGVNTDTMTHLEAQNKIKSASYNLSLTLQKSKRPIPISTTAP
Chain of NHERF4_1, Q86UT5-2 (Q86UT5 other isoform, or with tags, fused parts or gaps): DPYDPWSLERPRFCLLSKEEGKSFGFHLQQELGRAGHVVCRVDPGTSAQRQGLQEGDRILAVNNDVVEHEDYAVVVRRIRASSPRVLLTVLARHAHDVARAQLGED
Chain of GORASP1, Q9BQQ3 (Q9BQQ3 1-208): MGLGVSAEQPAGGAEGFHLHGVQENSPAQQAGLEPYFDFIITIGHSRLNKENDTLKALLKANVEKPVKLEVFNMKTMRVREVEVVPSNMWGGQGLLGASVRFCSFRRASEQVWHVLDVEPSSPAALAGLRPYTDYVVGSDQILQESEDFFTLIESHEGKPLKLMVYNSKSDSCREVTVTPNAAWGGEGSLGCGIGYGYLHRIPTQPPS
Chain of AHNAK1, Q09666 (Q09666 4-100): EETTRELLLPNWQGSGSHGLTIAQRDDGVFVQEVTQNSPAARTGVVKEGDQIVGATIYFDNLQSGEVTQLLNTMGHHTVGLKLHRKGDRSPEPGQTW
Chain of SCRIB_3, Q14160 (Q14160 999-1103): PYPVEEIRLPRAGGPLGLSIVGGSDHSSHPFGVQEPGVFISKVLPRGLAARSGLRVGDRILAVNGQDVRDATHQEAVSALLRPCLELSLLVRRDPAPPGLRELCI
Chain of DLG1_3, Q12959 (Q12959 457-571): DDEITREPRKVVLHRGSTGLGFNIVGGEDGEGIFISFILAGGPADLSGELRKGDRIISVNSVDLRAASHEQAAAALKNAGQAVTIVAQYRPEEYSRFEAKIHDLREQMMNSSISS
Chain of DLG1_2, Q12959 (Q12959 314-412): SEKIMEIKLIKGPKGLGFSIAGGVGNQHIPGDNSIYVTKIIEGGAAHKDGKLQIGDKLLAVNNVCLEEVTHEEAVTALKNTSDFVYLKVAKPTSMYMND
Chain of NOS1, P29475 (P29475 9-101): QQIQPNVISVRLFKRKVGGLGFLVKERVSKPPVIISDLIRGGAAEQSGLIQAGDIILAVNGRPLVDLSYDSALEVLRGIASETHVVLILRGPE
Chain of Inadl_9, Q8NI35 (Q8NI35 1530-1615): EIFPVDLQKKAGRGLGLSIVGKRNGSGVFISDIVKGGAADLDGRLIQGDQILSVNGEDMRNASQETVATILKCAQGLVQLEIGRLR

In the case of NISYRRESAI [KCNJ4, P48050], the pKd (AHNAK1, Q09666; [1]) is reported as “below the threshold”, the pKd (APBA2_1, Q99767; [1]) is reported as “below the threshold” and the pKd (DFNB31_3, Q9P202; [1]) is reported as “below the threshold”. For the same binder, the pKd (DLG1_2, Q12959; [1]) was 4.48, the pKd (DLG1_3, Q12959; [1]) was 3.91 and the pKd (DLG3_1, Q92796; [1]) was “below the threshold”. For the same binder, the pKd (GORASP1, Q9BQQ3; [1]) was “below the threshold”, the pKd (HTRA3, P83110; [1]) was “below the threshold” and the pKd (Inadl_2, Q8NI35; [1]) was “below the threshold”. The pKd (Inadl_9, Q8NI35; [1]) was “below the threshold”, the pKd (LDB3, O75112; [1]) was “below the threshold” and the pKd (LNX1_2, Q8TBB1; [1]) was “below the threshold”. The pKd (LNX2_2, Q8N448; [1]) was “below the threshold”, the pKd (MAGI1_2, Q96QZ7; [1]) was 3.89 and the pKd (MPDZ_10, O75970; [1]) was “below the threshold”. For the same binder, the pKd (MPP6, Q9NZW5; [1]) was “below the threshold”, the pKd (NHERF3_1, Q5T2W1; [1]) was 3.75 and the pKd (NHERF3_3, Q5T2W1; [1]) was “below the threshold”. For the same binder, the pKd (NHERF4_1, Q86UT5-2; [1]) was 3.48, the pKd (NOS1, P29475; [1]) was 3.62 and the pKd (PDLIM1, O00151; [1]) was “below the threshold”. The pKd (PICK1, Q9NRD5; [1]) was “below the threshold”, the pKd (RAPGEF6, Q8TEU7; [1]) was “below the threshold” and the pKd (SCRIB_3, Q14160; [1]) was 4.91. The pKd (SNTA1, Q13424; [1]) was “below the threshold” and the pKd (TJP3_3, O95049; [1]) was “below the threshold”.

In the case of RYEDTTLVEDTVL [WNV-NS5, Q9Q6P4], the pKd (AHNAK1, Q09666; [2]) is reported as “below the threshold”, the pKd (APBA2_1, Q99767; [2]) is reported as “below the threshold” and the pKd (DFNB31_3, Q9P202; [2]) is reported as “below the threshold”. The pKd (DLG1_2, Q12959; [2]) was 3.77, the pKd (DLG1_3, Q12959; [2]) was 3.51 and the pKd (DLG3_1, Q92796; [2]) was “below the threshold”. For the same binder, the pKd (GORASP1, Q9BQQ3; [2]) was 3.77, the pKd (HTRA3, P83110; [2]) was “below the threshold” and the pKd (Inadl_2, Q8NI35; [2]) was “below the threshold”. The pKd (Inadl_9, Q8NI35; [2]) was “below the threshold”, the pKd (LDB3, O75112; [2]) was “below the threshold” and the pKd (LNX1_2, Q8TBB1; [2]) was “below the threshold”. For the same binder, the pKd (LNX2_2, Q8N448; [2]) was “below the threshold”, the pKd (MAGI1_2, Q96QZ7; [2]) was “below the threshold” and the pKd (MPDZ_10, O75970; [2]) was “below the threshold”. The pKd (MPP6, Q9NZW5; [2]) was “below the threshold”, the pKd (NHERF3_1, Q5T2W1; [2]) was 4.43 and the pKd (NHERF3_3, Q5T2W1; [2]) was “below the threshold”. For the same binder, the pKd (NHERF4_1, Q86UT5-2; [2]) was 4.17, the pKd (NOS1, P29475; [2]) was 3.64 and the pKd (PDLIM1, O00151; [2]) was “below the threshold”. For the same binder, the pKd (PICK1, Q9NRD5; [2]) was “below the threshold”, the pKd (RAPGEF6, Q8TEU7; [2]) was “below the threshold” and the pKd (SCRIB_3, Q14160; [2]) was 3.97. For the same binder, the pKd (SNTA1, Q13424; [2]) was 4.14 and the pKd (TJP3_3, O95049; [2]) was “below the threshold”.

In the case of QDEKVKESYV [ABCA1, O95477], the pKd (AHNAK1, Q09666; [3]) is reported as “below the threshold”, the pKd (APBA2_1, Q99767; [3]) is reported as “below the threshold” and the pKd (DFNB31_3, Q9P202; [3]) is reported as “below the threshold”. For the same binder, the pKd (DLG1_2, Q12959; [3]) was 5.09, the pKd (DLG1_3, Q12959; [3]) was 3.76 and the pKd (DLG3_1, Q92796; [3]) was 4.29. It also gave a pKd (GORASP1, Q9BQQ3; [3]) of 3.66, a pKd (HTRA3, P83110; [3]) of 3.55 and a pKd (Inadl_2, Q8NI35; [3]) of 3.93. The pKd (Inadl_9, Q8NI35; [3]) was 4.29, the pKd (LDB3, O75112; [3]) was 3.53 and the pKd (LNX1_2, Q8TBB1; [3]) was “below the threshold”. It also gave a pKd (LNX2_2, Q8N448; [3]) of 3.64, a pKd (MAGI1_2, Q96QZ7; [3]) of 4.03 and a pKd (MPDZ_10, O75970; [3]) of 4.29. For the same binder, the pKd (MPP6, Q9NZW5; [3]) was “below the threshold”, the pKd (NHERF3_1, Q5T2W1; [3]) was 5.12 and the pKd (NHERF3_3, Q5T2W1; [3]) was 3.51. For the same binder, the pKd (NHERF4_1, Q86UT5-2; [3]) was 3.48, the pKd (NOS1, P29475; [3]) was 3.66 and the pKd (PDLIM1, O00151; [3]) was “below the threshold”. The pKd (PICK1, Q9NRD5; [3]) was 3.76, the pKd (RAPGEF6, Q8TEU7; [3]) was “below the threshold” and the pKd (SCRIB_3, Q14160; [3]) was 4.45. The pKd (SNTA1, Q13424; [3]) was 5.9 and the pKd (TJP3_3, O95049; [3]) was “below the threshold”.

Source: publication PMC9482650, “Quantitative fragmentomics allow affinity mapping of interactomes” (Nature Communications, 2022)
